According to paper PMC3885427:

What follows are substances tested against SOX6, full-length, yeast two-hybrid fusion (UniProt P35712) (assay: yeast two-hybrid (β-galactosidase liquid assay)). Details: S. cerevisiae Y187; SOX6 in pGBT9 (BD), SHOX2 mutant in pACT2 (AD); CRPG as substrate; parent: est. 100; read off a plot.
SOX6, full-length, yeast two-hybrid fusion, sequence (P35712 whole entry, the tested form may be a part): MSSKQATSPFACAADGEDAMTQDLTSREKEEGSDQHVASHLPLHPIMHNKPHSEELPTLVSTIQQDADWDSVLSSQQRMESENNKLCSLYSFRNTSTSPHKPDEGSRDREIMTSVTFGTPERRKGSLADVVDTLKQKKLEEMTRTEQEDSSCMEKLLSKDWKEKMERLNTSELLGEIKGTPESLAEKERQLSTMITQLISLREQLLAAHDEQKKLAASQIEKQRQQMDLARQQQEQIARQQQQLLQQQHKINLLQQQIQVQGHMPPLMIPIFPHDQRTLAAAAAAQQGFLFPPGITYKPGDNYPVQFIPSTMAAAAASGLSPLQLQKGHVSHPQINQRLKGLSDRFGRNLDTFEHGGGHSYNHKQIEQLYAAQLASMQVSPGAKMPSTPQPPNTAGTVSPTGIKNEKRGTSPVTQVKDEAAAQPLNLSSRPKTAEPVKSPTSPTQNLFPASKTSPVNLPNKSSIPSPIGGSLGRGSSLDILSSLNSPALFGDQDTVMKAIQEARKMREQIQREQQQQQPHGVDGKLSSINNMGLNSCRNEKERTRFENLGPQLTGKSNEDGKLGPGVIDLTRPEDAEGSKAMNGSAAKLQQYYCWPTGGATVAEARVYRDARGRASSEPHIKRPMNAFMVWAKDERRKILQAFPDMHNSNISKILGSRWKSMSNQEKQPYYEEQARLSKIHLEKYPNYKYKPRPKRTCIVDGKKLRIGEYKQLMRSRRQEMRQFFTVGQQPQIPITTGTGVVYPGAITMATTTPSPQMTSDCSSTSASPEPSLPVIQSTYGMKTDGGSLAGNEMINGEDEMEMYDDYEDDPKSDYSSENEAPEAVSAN

SHOX2a (called SHOX2 in the paper), full-length, yeast two-hybrid fusion, O60902-1 K139E, sequence (O60902 whole entry K139E, the tested form may be a part): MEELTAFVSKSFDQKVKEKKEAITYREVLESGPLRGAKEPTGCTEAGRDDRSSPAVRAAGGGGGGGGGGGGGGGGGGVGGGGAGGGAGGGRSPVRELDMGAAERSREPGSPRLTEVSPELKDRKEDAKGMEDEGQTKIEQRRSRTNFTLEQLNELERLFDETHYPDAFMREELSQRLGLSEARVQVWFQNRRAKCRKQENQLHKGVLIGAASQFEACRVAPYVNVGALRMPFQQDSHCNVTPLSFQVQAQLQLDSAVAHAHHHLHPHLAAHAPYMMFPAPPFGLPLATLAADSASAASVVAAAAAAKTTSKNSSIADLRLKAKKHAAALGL
SHOX2a (called SHOX2 in the paper), full-length, yeast two-hybrid fusion, O60902-1 A269D, sequence (O60902 whole entry A269D, the tested form may be a part): as the sequence (O60902 whole entry K139E, the tested form may be a part) above, with E139K, A269D counted along it
SHOX2a (called SHOX2 in the paper), full-length, yeast two-hybrid fusion, O60902-1 A193P, sequence (O60902 whole entry A193P, the tested form may be a part): as the sequence (O60902 whole entry K139E, the tested form may be a part) above, with E139K, A193P counted along it
SHOX2a (called SHOX2 in the paper), full-length, yeast two-hybrid fusion, O60902-1 R196C, sequence (O60902 whole entry R196C, the tested form may be a part): as the sequence (O60902 whole entry K139E, the tested form may be a part) above, with E139K, R196C counted along it
SHOX2a (called SHOX2 in the paper), full-length, yeast two-hybrid fusion, O60902-1 R319P, sequence (O60902 whole entry R319P, the tested form may be a part): as the sequence (O60902 whole entry K139E, the tested form may be a part) above, with E139K, R319P counted along it
SHOX2a (called SHOX2 in the paper), full-length, yeast two-hybrid fusion, O60902-1 L155V, sequence (O60902 whole entry L155V, the tested form may be a part): as the sequence (O60902 whole entry K139E, the tested form may be a part) above, with E139K, L155V counted along it
SHOX2a (called SHOX2 in the paper), full-length, yeast two-hybrid fusion, O60902-1 R218Q, sequence (O60902 whole entry R218Q, the tested form may be a part): as the sequence (O60902 whole entry K139E, the tested form may be a part) above, with E139K, R218Q counted along it

Substance	percent of parent (% Interaction with SOX6)
SHOX2a (called SHOX2 in the paper), full-length, yeast two-hybrid fusion, O60902-1 A193P	8
SHOX2a (called SHOX2 in the paper), full-length, yeast two-hybrid fusion, O60902-1 A269D	87
SHOX2a (called SHOX2 in the paper), full-length, yeast two-hybrid fusion, O60902-1 K139E	44
SHOX2a (called SHOX2 in the paper), full-length, yeast two-hybrid fusion, O60902-1 L155V	10
SHOX2a (called SHOX2 in the paper), full-length, yeast two-hybrid fusion, O60902-1 R196C	29
SHOX2a (called SHOX2 in the paper), full-length, yeast two-hybrid fusion, O60902-1 R218Q	89
SHOX2a (called SHOX2 in the paper), full-length, yeast two-hybrid fusion, O60902-1 R319P	80
